Assay [1] deals with native human factor VIII (nhfVIII) (human) (UniProt P00451). The experiment in a line: batch binding to regenerated peptide beads; target in fraction by sandwich ELISA. (In an ELISA, binding on a coated surface is turned into a signal by an enzyme label.)
For assay [2], the target named is REFACTO® (recombinant factor VIII-like polypeptide consisting of amino acids 1-743 and 1638 through 2332 of human factor VIII) (human) (UniProt P00451). Put plainly: affinity column, peptide on Toyopearl Formyl 650-M; target in fraction by activity assay.
REFACTO® (recombinant factor VIII-like polypeptide consisting of amino acids 1-743 and 1638 through 2332 of human factor VIII) (human), sequence (P00451 20-762, chain 1 of 2): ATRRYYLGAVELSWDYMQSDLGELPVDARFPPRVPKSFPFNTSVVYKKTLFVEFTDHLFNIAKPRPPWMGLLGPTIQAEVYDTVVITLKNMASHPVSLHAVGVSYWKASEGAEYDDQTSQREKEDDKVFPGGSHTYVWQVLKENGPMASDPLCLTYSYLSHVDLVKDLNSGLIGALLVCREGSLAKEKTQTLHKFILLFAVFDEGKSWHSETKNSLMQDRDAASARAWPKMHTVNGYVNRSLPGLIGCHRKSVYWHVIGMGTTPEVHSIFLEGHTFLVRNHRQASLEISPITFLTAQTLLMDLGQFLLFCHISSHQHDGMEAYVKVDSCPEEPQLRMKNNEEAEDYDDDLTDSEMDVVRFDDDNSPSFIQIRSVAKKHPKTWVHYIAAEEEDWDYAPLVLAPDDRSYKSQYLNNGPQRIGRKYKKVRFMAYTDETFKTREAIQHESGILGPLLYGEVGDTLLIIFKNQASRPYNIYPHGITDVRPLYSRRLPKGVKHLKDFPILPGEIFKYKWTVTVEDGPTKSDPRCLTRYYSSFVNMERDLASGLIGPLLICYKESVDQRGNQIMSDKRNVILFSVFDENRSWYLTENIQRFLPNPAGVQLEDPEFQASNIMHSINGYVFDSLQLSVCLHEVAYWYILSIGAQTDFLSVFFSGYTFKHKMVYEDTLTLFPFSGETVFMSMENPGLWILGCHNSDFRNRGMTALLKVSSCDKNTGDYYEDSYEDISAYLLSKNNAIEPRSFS
REFACTO® (recombinant factor VIII-like polypeptide consisting of amino acids 1-743 and 1638 through 2332 of human factor VIII) (human), sequence (P00451 1657-2351, chain 2 of 2): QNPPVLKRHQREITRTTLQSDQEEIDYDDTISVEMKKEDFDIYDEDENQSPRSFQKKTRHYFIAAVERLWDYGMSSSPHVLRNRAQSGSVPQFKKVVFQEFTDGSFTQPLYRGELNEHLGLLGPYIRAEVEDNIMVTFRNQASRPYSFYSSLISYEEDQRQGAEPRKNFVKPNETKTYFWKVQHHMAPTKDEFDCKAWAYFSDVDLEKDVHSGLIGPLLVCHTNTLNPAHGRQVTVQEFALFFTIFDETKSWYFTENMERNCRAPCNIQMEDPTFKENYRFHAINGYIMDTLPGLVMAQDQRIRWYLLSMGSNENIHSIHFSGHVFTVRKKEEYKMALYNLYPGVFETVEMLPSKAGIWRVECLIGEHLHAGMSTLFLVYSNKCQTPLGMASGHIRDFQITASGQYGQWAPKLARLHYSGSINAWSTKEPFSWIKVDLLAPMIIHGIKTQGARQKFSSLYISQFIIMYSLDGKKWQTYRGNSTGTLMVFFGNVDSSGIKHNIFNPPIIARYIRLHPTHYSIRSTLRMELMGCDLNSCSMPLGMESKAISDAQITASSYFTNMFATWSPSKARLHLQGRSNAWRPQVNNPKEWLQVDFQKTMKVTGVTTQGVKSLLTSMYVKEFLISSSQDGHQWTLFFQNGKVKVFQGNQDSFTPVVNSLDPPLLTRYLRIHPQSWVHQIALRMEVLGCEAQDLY
For assay [3] the target is unchanged. Put plainly: affinity column, peptide on Toyopearl Formyl 650-M; target in fraction by RP-HPLC.
Assay [4] has the same target. The experiment in a line: batch binding to peptide beads; target in fraction by sandwich ELISA.
For assay [5] the target is unchanged. The experiment in a line: phage ELISA, phage isolate on factor VIII target, anti-M13-HRP.
Assay [6] shares this target. Put plainly: phage ELISA, with target against without target.

Positions of bridges follow the written chain, without caps; N, C: chain ends. No end group written: not given here. *: point of attachment. NHNH2 = NN*

native human factor VIII (nhfVIII) (human), sequence (P00451 20-2351): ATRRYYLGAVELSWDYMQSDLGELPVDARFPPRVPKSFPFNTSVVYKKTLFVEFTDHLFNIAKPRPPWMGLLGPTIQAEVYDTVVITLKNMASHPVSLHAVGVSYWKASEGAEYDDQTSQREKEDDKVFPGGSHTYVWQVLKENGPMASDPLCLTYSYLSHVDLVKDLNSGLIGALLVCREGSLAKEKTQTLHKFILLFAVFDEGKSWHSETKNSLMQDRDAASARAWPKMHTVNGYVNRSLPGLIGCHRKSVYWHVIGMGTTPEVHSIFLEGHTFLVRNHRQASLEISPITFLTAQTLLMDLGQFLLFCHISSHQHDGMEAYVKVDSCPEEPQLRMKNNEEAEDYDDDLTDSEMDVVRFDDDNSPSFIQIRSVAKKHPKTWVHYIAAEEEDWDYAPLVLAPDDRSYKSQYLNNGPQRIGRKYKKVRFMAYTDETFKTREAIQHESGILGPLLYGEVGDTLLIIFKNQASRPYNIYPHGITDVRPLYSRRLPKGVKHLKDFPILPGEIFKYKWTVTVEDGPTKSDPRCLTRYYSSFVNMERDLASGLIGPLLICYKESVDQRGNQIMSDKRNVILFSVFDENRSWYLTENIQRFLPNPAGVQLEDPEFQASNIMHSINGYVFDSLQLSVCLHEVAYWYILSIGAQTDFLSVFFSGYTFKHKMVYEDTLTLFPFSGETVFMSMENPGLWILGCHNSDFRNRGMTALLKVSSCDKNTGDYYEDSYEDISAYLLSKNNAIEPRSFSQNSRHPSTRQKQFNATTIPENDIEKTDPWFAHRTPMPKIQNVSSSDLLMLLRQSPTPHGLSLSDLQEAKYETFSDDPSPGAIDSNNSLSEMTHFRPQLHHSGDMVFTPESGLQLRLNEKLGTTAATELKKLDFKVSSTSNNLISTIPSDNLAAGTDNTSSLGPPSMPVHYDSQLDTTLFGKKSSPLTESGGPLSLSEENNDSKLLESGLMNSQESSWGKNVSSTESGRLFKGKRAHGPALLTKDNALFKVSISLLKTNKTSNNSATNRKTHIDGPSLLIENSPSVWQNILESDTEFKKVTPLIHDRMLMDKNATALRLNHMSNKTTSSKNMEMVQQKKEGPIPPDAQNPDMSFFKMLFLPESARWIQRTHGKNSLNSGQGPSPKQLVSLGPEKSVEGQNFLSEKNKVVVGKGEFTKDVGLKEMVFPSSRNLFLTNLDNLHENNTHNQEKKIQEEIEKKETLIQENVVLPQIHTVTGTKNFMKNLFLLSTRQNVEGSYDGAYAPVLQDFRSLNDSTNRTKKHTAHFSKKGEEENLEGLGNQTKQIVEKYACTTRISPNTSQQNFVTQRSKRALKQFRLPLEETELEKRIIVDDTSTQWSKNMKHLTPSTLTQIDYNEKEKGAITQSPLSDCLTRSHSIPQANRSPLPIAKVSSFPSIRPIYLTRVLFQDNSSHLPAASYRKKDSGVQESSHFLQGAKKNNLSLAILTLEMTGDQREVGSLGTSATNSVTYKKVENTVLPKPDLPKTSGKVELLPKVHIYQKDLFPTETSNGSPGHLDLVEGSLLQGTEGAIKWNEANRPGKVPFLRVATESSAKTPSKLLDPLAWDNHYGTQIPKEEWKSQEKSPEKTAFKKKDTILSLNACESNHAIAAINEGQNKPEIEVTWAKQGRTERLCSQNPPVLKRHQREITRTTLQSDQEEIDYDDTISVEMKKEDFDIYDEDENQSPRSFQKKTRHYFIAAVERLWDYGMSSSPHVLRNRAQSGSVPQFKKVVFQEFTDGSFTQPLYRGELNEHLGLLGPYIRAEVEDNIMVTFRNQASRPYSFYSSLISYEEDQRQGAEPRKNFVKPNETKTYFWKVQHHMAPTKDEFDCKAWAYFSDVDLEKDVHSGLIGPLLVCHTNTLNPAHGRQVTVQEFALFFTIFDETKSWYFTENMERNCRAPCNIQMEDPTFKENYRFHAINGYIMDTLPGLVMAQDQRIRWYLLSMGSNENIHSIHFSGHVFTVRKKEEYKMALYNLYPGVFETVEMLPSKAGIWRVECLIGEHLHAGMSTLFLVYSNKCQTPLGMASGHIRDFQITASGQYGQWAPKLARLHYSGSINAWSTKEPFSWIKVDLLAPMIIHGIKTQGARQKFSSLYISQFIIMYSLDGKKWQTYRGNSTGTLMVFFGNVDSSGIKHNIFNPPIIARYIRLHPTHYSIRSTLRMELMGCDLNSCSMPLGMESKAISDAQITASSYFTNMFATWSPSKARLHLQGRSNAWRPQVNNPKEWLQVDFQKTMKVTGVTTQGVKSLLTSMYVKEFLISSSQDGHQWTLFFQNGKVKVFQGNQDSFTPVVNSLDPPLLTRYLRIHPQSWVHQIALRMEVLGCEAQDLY

In assay [1], AEGTGDFGCSWLFPCPFDPGPEGGGS-NHNH2 (disulfide 9-15 (inferred)) [Affinity ligand CS-456] displayed a % of Total Recovered in Eluate of 16%, a % of Total Recovered in Unbound of 70% and a % of Total Recovered in Wash of 14%. In assay [2], the % recovery, Elution A came to 43% and the % recovery, Flow was found to be 4.8%. For the same molecule, in assay [3], the % recovery, Elution A is 44.8%; the % recovery, Elution B is 0%; the % recovery, Flow was 3.4%; the % recovery, pH2 was 0%. Also, in assay [4], the % of Input Recovered in Eluate amounted to 24%, the % of Input Recovered in Unbound is 47% and the % of Input Recovered in Wash came out at 20%.

For FCWVFPFNHCS [TN9 isolate 12 (SEQ ID NO: 28)], in assay [5], the ELISA signal worked out at 1 OD630. In addition, in assay [6], the R (ratio of the ELISA score with target present to the ELISA score without target) was determined as 18.

For HPCGAWFNPCPR [TN8 isolate 01 (SEQ ID NO: 19)], the ELISA signal in assay [5] was found to be 0.2 OD630.

For FCHVFHFSHCD [TN9 isolate 01 (SEQ ID NO: 24)], the ELISA signal in assay [5] came to 0.2 OD630.

As for FCWVFPFHHCF [TN9 isolate 06 (SEQ ID NO: 30)], the ELISA signal in assay [5] was 0.3 OD630. Further, the R (ratio of the ELISA score with target present to the ELISA score without target) in assay [6] was 6.

Take FCWVFQFRHCH [TN9/1 isolate … (SEQ ID NO: 77)]: in assay [6], the R (ratio of the ELISA score with target present to the ELISA score without target) came to 8.

Turning to AEGTGDHPCGSWLRPCLHDPGPEGGGS-NHNH2 (disulfide 9-16 (inferred)) [Affinity ligand CS-453], in assay [2], the % recovery, Elution A is 26.4% and the % recovery, Flow is 0%. Also, in assay [3], the % recovery, Elution A was 43.2%; the % recovery, Elution B worked out at 0%; the % recovery, Flow amounted to 0%; the % recovery, pH2 stood at 0%.

AEGTGDFCWVFPFQHCADPGPEGGGS-NHNH2 (disulfide 8-16 (inferred)) [Affinity ligand CS-459]: in assay [2], the % recovery, Elution A was 31.2% and the % recovery, Flow was 6.4%. Moreover, in assay [3], the % recovery, Elution A is 42.1%; the % recovery, Elution B was 0%; the % recovery, Flow stood at 1.6%; the % recovery, pH2 is 0%.

For the molecule HGCGAWFRPCHA [TN8 isolate 01 (SEQ ID NO: 18)], the ELISA signal in assay [5] turned out to be 0.2 OD630.

Consider HPCGSWLHPCAA [TN8 isolate 04 (SEQ ID NO: 12)], for which, in assay [5], the ELISA signal worked out at 0.3 OD630. Further, the R (ratio of the ELISA score with target present to the ELISA score without target) in assay [6] came to 6.

HPCGAWLRPCYN [TN8 isolate 08 (SEQ ID NO: 20)]: in assay [5], the ELISA signal was found to be 1 OD630. For the same molecule, the R (ratio of the ELISA score with target present to the ELISA score without target) in assay [6] amounted to 20.

Take HLCFAWFRPCDA [TN8 isolate 12 (SEQ ID NO: 17)]: in assay [5], the ELISA signal came to 0.4 OD630. Also, the R (ratio of the ELISA score with target present to the ELISA score without target) in assay [6] was found to be 8.

FCWVFNWVHCD [TN9/1 isolate … (SEQ ID NO: 75)]: the R (ratio of the ELISA score with target present to the ELISA score without target) in assay [6] came out at 14.

As to FCWVFNFSHCS [TN9 isolate 03 (SEQ ID NO: 26)], the ELISA signal in assay [5] is 1.1 OD630. Besides, the R (ratio of the ELISA score with target present to the ELISA score without target) in assay [6] came out at 24.

RLCSWVSPCSA [TN7 isolate C5/G10]: the ELISA signal in assay [5] came to 0.5 OD630. Moreover, in assay [6], the R (ratio of the ELISA score with target present to the ELISA score without target) was 10.

On to FCHVFPFLHCD [TN9 isolate 11 (SEQ ID NO: 32)], for which the ELISA signal in assay [5] was 0.2 OD630.

For HPCGSWFRPCFH [TN8 isolate 02 (SEQ ID NO: 14)], the ELISA signal in assay [5] came out at 0.7 OD630. In assay [6], the R (ratio of the ELISA score with target present to the ELISA score without target) came to 16.

For HACGSWFRPCHA [TN8 isolate 07 (SEQ ID NO: 15)], in assay [5], the ELISA signal worked out at 0.4 OD630. Moreover, the R (ratio of the ELISA score with target present to the ELISA score without target) in assay [6] turned out to be 6.

On to HPCGSWFNPCAH [TN8 isolate 02 (SEQ ID NO: 13)], for which the ELISA signal in assay [5] stood at 0.3 OD630. The R (ratio of the ELISA score with target present to the ELISA score without target) in assay [6] stood at 8.

HRCGSWLHPCLA [TN8 isolate 11/G10 (SEQ ID NO: 21)]: in assay [5], the ELISA signal came out at 0.3 OD630. For the same molecule, in assay [6], the R (ratio of the ELISA score with target present to the ELISA score without target) was found to be 6.

Consider FCHVFNFVHCS [TN9 isolate 01 (SEQ ID NO: 31)], for which the ELISA signal in assay [5] was 0.5 OD630. The R (ratio of the ELISA score with target present to the ELISA score without target) in assay [6] is 8.

With FCWVHPFAHCL [TN9 isolate 02 (SEQ ID NO: 23)], in assay [5], the ELISA signal is 0.2 OD630.

In assay [1], AEGTGDHLCGAWFRPCDADPGPEGGGS-NHNH2 (disulfide 9-16 (inferred)) [Affinity ligand CS-454] had a % of Total Recovered in Eluate of 21%, a % of Total Recovered in Unbound of 67% and a % of Total Recovered in Wash of 12%. For the same molecule, in assay [2], the % recovery, Elution A came to 42.4% and the % recovery, Flow was 2.2%. In addition, in assay [3], the % recovery, Elution A turned out to be 45.1%; the % recovery, Elution B was determined as 0%; the % recovery, Flow stood at 2.5%; the % recovery, pH2 stood at 0%. Moreover, in assay [4], the % of Input Recovered in Eluate was 49%, the % of Input Recovered in Unbound was 24% and the % of Input Recovered in Wash was 12%.

For HLCGAWFRPCDA [TN8 isolate 02 (SEQ ID NO: 16)], in assay [5], the ELISA signal worked out at 0.4 OD630. For the same molecule, the R (ratio of the ELISA score with target present to the ELISA score without target) in assay [6] amounted to 6.

For RGCGSWLRPCLD [TN8 isolate 05 (SEQ ID NO: 11)], the ELISA signal in assay [5] was found to be 0.2 OD630.

For the molecule HSCGSWLFPCFA [TN7 isolate A06], in assay [5], the ELISA signal was 0.5 OD630. Besides, the R (ratio of the ELISA score with target present to the ELISA score without target) in assay [6] is 10.

Consider HPCGSWLRPCLH [TN8 isolate 10 (SEQ ID NO: 10)], for which the ELISA signal in assay [5] turned out to be 1 OD630. Moreover, the R (ratio of the ELISA score with target present to the ELISA score without target) in assay [6] was found to be 16.

On to FHCIGVWFCLH [TN7 isolate A09], for which the ELISA signal in assay [5] was found to be 0.1 OD630.

Consider FCWVFPFQHCA [TN9 isolate 09 (SEQ ID NO: 29)], for which the ELISA signal in assay [5] is 1.1 OD630. Besides, in assay [6], the R (ratio of the ELISA score with target present to the ELISA score without target) is 24.

Consider AEGTGDFHCIGVWFCLHDPGPEGGGS-NHNH2 (disulfide 9-15 (inferred)) [Affinity ligand CS-455], for which, in assay [2], the % recovery, Elution A is 1.3% and the % recovery, Flow worked out at 61.6%. In assay [3], the % recovery, Elution A came out at 1.4%; the % recovery, Elution B was determined as 0%; the % recovery, Flow is 65.8%; the % recovery, pH2 was determined as 0%.

RLCSWISPCSA [TN7 isolate D04]: the ELISA signal in assay [5] was 0.3 OD630. The R (ratio of the ELISA score with target present to the ELISA score without target) in assay [6] was 6.

Take FCWVFPFNHCD [TN9 isolate 02 (SEQ ID NO: 27)]: in assay [5], the ELISA signal worked out at 0.4 OD630. Moreover, the R (ratio of the ELISA score with target present to the ELISA score without target) in assay [6] stood at 8.

In the case of AEGTGDFCWVFPFHHCFDPGPEGGGS-NHNH2 (disulfide 8-16 (inferred)) [Affinity ligand CS-460], in assay [2], the % recovery, Elution A was found to be 0% and the % recovery, Flow worked out at 28.4%. Moreover, in assay [3], the % recovery, Elution A is 28.8%; the % recovery, Elution B turned out to be 0%; the % recovery, Flow was 24.6%; the % recovery, pH2 was 0%.

As for FCWVFAFDHCH (not fully specified (bridges); cysteine pairing not given here) [TN9/1 isolate … (SEQ ID NO: 71)], the R (ratio of the ELISA score with target present to the ELISA score without target) in assay [6] turned out to be 24.

Turning to FGCSWLFPCPF [TN7 isolate A08], the ELISA signal in assay [5] was found to be 0.4 OD630. Also, the R (ratio of the ELISA score with target present to the ELISA score without target) in assay [6] came out at 8.

In the case of PHCNWLFPCSL [TN7 isolate D03], the ELISA signal in assay [5] was 0.2 OD630.

(Values after patent US20060193829A1.)
